From patent publication US20210403567A1, “METHODS OF TREATING CERVICAL CANCER BY ADMINISTERING A PD-1 INHIBITOR” (priority 2020, published 2021)

Test: Phase I expansion cohorts: safety, treatment-emergent adverse events (NCI CTCAE 4.03)
Assay type: in vivo, human
Procedure: The combination therapy cohort enrolled patients for whom palliative hfRT was planned to a lesion that was causing some signs or symptoms. The radiated lesion was not followed as a target lesion for response assessments.
Assessments: Tumor histology was assessed per local pathology reports of tumor samples obtained at any time prior to study enrollment. […] Extensive safety evaluations were performed during screening and on Day 1 of each subsequent treatment cycle throughout the study. Routine safety evaluations were performed at each cemiplimab dosing visit. Tumor response assessments were performed by investigators, per RECIST 1.1, at the end of each 8-week treatment cycle. In combination therapy cohorts, the lesions selected for hfRT were not included in RECIST 1.1 assessments.
Statistical analysis of clinical data: The safety summaries and analyses were performed on the safety analysis set. Data were summarized using descriptive statistics, along with two-sided 95% confidence interval (CI), by dose cohort. Continuous variables were summarized with mean, median, standard deviation, minimum, and maximum. Categorical variables were summarized with frequency and percentage. Kaplan-Meier analysis was performed for progression-free survival (PFS) and OS.

cemiplimab
Treatment-related TEAEs (Grade 3) (1/10): 10% | Treatment-related TEAE: Any (Grade ≥ 3, n = 10 per cohort): 1 n (%) | Treatment-related TEAE: Diarrhea (Grade ≥ 3, n = 10 per cohort): 0 n (%) | Treatment-related TEAE: Fatigue (Grade ≥ 3, n = 10 per cohort): 1 n (%) | Treatment-related TEAE: Hyponatremia (Grade ≥ 3, n = 10 per cohort): 0 n (%) | Treatment-related TEAE: Hypothyroidism (Grade ≥ 3, n = 10 per cohort): 0 n (%) | Treatment-related TEAE: Myalgia (Grade ≥ 3, n = 10 per cohort): 1 n (%) | Treatment-related TEAE: Pneumonitis (Grade ≥ 3, n = 10 per cohort): 0 n (%) | Treatment-related TEAE: Any (any grade, n = 10 per cohort): 7 n (%) | Treatment-related TEAE: Diarrhea (any grade, n = 10 per cohort): 2 n (%) | Treatment-related TEAE: Fatigue (any grade, n = 10 per cohort): 3 n (%) | Treatment-related TEAE: Hyponatremia (any grade, n = 10 per cohort): 1 n (%) | Treatment-related TEAE: Hypothyroidism (any grade, n = 10 per cohort): 2 n (%) | Treatment-related TEAE: Myalgia (any grade, n = 10 per cohort): 1 n (%) | Treatment-related TEAE: Pneumonitis (any grade, n = 10 per cohort): 1 n (%) | TEAE fatigue (both cohorts combined (5/20)): 25% | TEAE hypokalemia (both cohorts combined (5/20)): 25% | TEAE diarrhea (both cohorts combined (7/20)): 35% | patients who experienced grade TEAEs (four patients of 10 per cohort): 40.0% | TEAEs of any grade, regardless of treatment attribution (n = 10 per cohort): 9 patients | discontinued treatment due to TEAEs (n = 10 per cohort): No patients
